Assay results published in patent publication US20180134765A1 (AVIDBIOTICS, published 2018).

Experiments:
OMCP-α3-iFv.2 = biological target: T1, OMCP-α3-iFv.2; test: ELISA: protein captured on FGFR3 detected with NKG2D-Fc
T1 construct: also called NKG2DL-α3-iFv.2 (OMCP)

ULBP4-Fc [1] = biological target: T2, ULBP4-Fc (UniProt Q8TD07 31-225); test: plate ELISA: biotinylated natural NKG2D ectodomain titrated on coated ligand-Fc
T2 construct: Bought, R&D Systems; not shown: Fc part of the bought reagent
T2 sequence (looked up): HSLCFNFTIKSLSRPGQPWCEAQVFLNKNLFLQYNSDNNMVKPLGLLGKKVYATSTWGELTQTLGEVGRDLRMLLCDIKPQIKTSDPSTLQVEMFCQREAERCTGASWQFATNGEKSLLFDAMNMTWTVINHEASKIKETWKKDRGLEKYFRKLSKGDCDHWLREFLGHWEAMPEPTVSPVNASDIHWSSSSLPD

MICwed-Fc [2] = test: ELISA: ligand-Fc coated at 2 ug/ml, biotinylated NKG2D ectodomain titrated, streptavidin-HRP
MICB-Fc [3] = biological target: T3, MICB-Fc (UniProt Q29980 23-298); test: as above
T3 construct: Bought, R&D Systems; not shown: Fc part of the bought reagent
T3 sequence (looked up): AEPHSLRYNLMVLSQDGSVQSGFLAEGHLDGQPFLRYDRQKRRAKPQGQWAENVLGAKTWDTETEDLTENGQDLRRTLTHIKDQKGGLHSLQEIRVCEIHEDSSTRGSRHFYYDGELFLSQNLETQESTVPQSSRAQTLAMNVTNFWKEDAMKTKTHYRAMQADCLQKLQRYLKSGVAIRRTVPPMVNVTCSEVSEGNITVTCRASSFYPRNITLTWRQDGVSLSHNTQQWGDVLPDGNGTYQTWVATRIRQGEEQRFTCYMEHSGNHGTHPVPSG

ULBP1-Fc [4] = biological target: T4, ULBP1-Fc (UniProt Q9BZM6 26-216); test: as above
T4 construct: Bought, R&D Systems; not shown: Fc part of the bought reagent
T4 sequence (looked up): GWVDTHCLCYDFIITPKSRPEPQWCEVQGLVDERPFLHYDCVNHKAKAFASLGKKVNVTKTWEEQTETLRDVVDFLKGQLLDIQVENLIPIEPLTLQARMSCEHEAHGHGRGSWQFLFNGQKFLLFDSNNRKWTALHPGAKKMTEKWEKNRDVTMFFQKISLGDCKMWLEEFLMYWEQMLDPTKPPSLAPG

ULBP2-Fc [5] = biological target: T5, ULBP2-Fc (UniProt Q9BZM5 26-217); test: as above
T5 construct: Bought, R&D Systems; not shown: Fc part of the bought reagent
T5 sequence (looked up): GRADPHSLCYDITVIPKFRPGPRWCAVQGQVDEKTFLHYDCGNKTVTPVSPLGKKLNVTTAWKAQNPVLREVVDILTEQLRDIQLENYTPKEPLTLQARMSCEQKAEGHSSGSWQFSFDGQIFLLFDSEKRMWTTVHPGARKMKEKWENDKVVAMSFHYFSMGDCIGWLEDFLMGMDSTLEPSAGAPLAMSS

ULBP3-Fc [6] = biological target: T6, ULBP3-Fc (UniProt Q9BZM4 30-217); test: as above
T6 construct: Bought, R&D Systems; not shown: Fc part of the bought reagent
T6 sequence (looked up): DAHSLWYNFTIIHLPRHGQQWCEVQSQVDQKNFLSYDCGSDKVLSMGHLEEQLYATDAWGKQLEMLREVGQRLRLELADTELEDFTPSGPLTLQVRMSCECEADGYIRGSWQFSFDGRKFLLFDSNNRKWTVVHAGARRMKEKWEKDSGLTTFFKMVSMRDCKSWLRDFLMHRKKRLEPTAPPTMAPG

MICA-Fc [7] = biological target: T7, MICA-Fc; test: ELISA: ligand-Fc coated at 2 ug/ml, biotinylated NKG2D Y152A, Y199A ectodomain titrated, streptavidin-HRP
T7 construct: also called natural α1-α2-α3-Fc fusion
T7 chain: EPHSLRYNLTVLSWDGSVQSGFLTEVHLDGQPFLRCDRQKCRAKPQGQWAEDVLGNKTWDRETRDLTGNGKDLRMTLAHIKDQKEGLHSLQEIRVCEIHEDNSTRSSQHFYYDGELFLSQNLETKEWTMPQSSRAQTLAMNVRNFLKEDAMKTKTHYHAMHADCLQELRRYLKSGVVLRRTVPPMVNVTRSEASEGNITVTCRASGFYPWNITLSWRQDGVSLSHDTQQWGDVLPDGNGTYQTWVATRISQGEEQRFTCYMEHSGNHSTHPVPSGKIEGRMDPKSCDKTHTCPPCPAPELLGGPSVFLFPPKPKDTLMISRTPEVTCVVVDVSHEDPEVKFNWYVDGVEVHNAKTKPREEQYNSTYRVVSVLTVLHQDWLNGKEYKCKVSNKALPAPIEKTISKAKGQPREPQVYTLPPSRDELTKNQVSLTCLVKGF

MICwed-Fc [8] = test: as above
MICv25-Fc [9] = biological target: T8, MICv25-Fc; test: as above
T8 construct: also called MIC-v25 α1-α2 domain ligand

MICB-Fc [10] = biological target: T3, MICB-Fc; test: as above
ULBP1-Fc [11] = biological target: T4, ULBP1-Fc; test: as above
ULBP2-Fc [12] = biological target: T5, ULBP2-Fc; test: as above
ULBP3-Fc [13] = biological target: T6, ULBP3-Fc; test: as above
ULBP4-Fc [14] = biological target: T2, ULBP4-Fc; test: as above
MICA-Fc [15] = biological target: T7, MICA-Fc; test: ELISA: ligand-Fc coated at 2 ug/ml, biotinylated NKG2D Y199A ectodomain titrated, streptavidin-HRP
MICwed-Fc [16] = test: as above
MICv25-Fc [17] = biological target: T8, MICv25-Fc; test: as above
MICB-Fc [18] = biological target: T3, MICB-Fc; test: as above
ULBP1-Fc [19] = biological target: T4, ULBP1-Fc; test: as above
ULBP2-Fc [20] = biological target: T5, ULBP2-Fc; test: as above
ULBP3-Fc [21] = biological target: T6, ULBP3-Fc; test: as above
ULBP4-Fc [22] = biological target: T2, ULBP4-Fc; test: as above
MICA-Fc [23] = biological target: T7, MICA-Fc; test: ELISA: ligand-Fc coated at 2 ug/ml, biotinylated NKG2D Y152A ectodomain titrated, streptavidin-HRP
MICwed-Fc [24] = test: as above
MICB-Fc [25] = biological target: T3, MICB-Fc; test: as above
ULBP1-Fc [26] = biological target: T4, ULBP1-Fc; test: as above
ULBP2-Fc [27] = biological target: T5, ULBP2-Fc; test: as above
ULBP3-Fc [28] = biological target: T6, ULBP3-Fc; test: as above
ULBP4-Fc [29] = biological target: T2, ULBP4-Fc; test: as above

B1: human NKG2D-Fc (Fc fusion)
chain: FLNSLFNQEVQIPLTESYCGPCPKNWICYKNNCYQFFDESKNWYESQASCMSQNASLLKVYSKEDQDLLKLVKSYHWMGLVHIPTNGSWQWEDGSILSPNLLTIIEMQKGDCALYASSFKGYIENCSTPNTYICMQRTV
notes: also called natural NKG2D-Fc; not shown: Fc part
binds: binding result (OMCP-α3-iFv.2)

B2: His-avitag-natural NKG2D (receptor)
chain: EPHHHHHHGLNDIFEAQKIEWHENSLFNQEVQIPLTESYCGPCPKNWICYKNNCYQFFDESKNWYESQASCMSQNASLLKVYSKEDQDLLKLVKSYHWMGLVHIPTNGSWQWEDGSILSPNLLTIIEMQKGDCALYASSFKGYIENCSTPNTYICMQRTV
modifications: biotin on the avitag sequence (BirA)
notes: also called natural NKG2D ectodomain; wild type NKG2D
binds: binding result (ULBP4-Fc [1]) | binding result (MICB-Fc [3]) | binding result (ULBP1-Fc [4]) | binding result (ULBP2-Fc [5]) | binding result (ULBP3-Fc [6])
~100 nM: EC50 (read off the curve) (MICwed-Fc [2])

B3: Y152A plus Y199A NKG2D ectodomain (receptor)
chain: EPHHHHHHGLNDIFEAQKIEWHENSLFNQEVQIPLTESYCGPCPKNWICYKNNCYQFFDESKNWYESQASCMSQNASLLKVYSKEDQDLLKLVKSAHWMGLVHIPTNGSWQWEDGSILSPNLLTIIEMQKGDCALYASSFKGAIENCSTPNTYICMQRTV
modifications: biotin on the avitag sequence (BirA)
notes: Expressed with His-avitag; also called non-natural NKG2D double mutant Y152A and Y199A
no binding (tested: 2000 nM): binding result (MICA-Fc [7]) | binding result (MICwed-Fc [8]) | binding result (MICv25-Fc [9]) | binding result (MICB-Fc [10]) | binding result (ULBP1-Fc [11]) | binding result (ULBP2-Fc [12]) | binding result (ULBP3-Fc [13]) | binding result (ULBP4-Fc [14])

B4: Y199A NKG2D ectodomain (receptor)
chain: EPHHHHHHGLNDIFEAQKIEWHENSLFNQEVQIPLTESYCGPCPKNWICYKNNCYQFFDESKNWYESQASCMSQNASLLKVYSKEDQDLLKLVKSYHWMGLVHIPTNGSWQWEDGSILSPNLLTIIEMQKGDCALYASSFKGAIENCSTPNTYICMQRTV
modifications: biotin on the avitag sequence (BirA)
notes: Expressed with His-avitag; also called non-natural NKG2D mutant Y199A
no binding (tested: 2000 nM): binding result (MICA-Fc [15]) | binding result (MICwed-Fc [16]) | binding result (MICv25-Fc [17]) | binding result (MICB-Fc [18]) | binding result (ULBP1-Fc [19]) | binding result (ULBP2-Fc [20]) | binding result (ULBP3-Fc [21]) | binding result (ULBP4-Fc [22])

B5: Y152A NKG2D ectodomain (receptor)
chain: EPHHHHHHGLNDIFEAQKIEWHENSLFNQEVQIPLTESYCGPCPKNWICYKNNCYQFFDESKNWYESQASCMSQNASLLKVYSKEDQDLLKLVKSAHWMGLVHIPTNGSWQWEDGSILSPNLLTIIEMQKGDCALYASSFKGYIENCSTPNTYICMQRTV
modifications: biotin on the avitag sequence (BirA)
notes: Expressed with His-avitag; also called non-natural NKG2D mutant Y152A; Y152A mutant NKG2D ectodomain
no binding (tested: 2000 nM): binding result (MICA-Fc [23]) | binding result (MICwed-Fc [24]) | binding result (MICB-Fc [25]) | binding result (ULBP1-Fc [26]) | binding result (ULBP2-Fc [27]) | binding result (ULBP3-Fc [28]) | binding result (ULBP4-Fc [29])
